Laboratory results taken from patent US20020102568, “Nucleic acid sensor molecules” (published 2002).

Target: ERK2 (unactivated, unphosphorylated) (UniProt P28482 P28482:2-360)
Experiment: cleavage_in_vitro; half-maximal allozyme activation; about 100-fold activation by ERK2; 100 mM KCl, 1 mM MgCl2, 10 mM Tris 7.5, 34 C; text cites SEQ 39, listing gives Erk sensor molecule as SEQ 42
Protocol: To examine the dependence of activation on the concentration of ERK2, various amounts of ERK2 were added to different reactions (FIG. 31b). One half-maximal nucleic acid sensor molecule activation is promoted by ˜800 pg/μl ERK2.

Chain of ERK2 (unactivated, unphosphorylated) (P28482 2-360, one chain of several): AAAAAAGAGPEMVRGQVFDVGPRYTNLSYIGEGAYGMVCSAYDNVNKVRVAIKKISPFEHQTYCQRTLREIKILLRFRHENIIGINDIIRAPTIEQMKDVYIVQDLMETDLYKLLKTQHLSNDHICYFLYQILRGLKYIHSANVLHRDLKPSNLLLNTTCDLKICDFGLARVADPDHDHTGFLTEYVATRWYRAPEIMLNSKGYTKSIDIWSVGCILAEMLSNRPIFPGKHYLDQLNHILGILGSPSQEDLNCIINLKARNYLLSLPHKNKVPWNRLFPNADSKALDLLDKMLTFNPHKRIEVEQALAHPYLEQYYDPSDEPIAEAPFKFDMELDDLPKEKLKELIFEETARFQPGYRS

B1: ERK2-responsive hammerhead allozyme (ssRNA)
RNA: GCGUGACCUGAUGAGUCACGCUAAGGAGGAUUUCCGAAAGCGGCUACGGUCCGCCAGUGUUACGAAACGUUCCC
EC50: ~0.8 mg/L
